Measured values published in patent US20230174626A1 (GlaxoSmithKline, published 2023).

B1: humanized 23C2 mAb (antibody, human IgG1, kappa, V domains shown)
VH: DVQLQESGPGLVKPSQSLSLTCSVTGYSIKSGYYWNWIRQFPGNKLEWMGYISYGGDFTYNPSLKNRISITRDTSKNQFFLKLNSVTTEDTATYFCVREPNWESYFDIWGAGTTVTVSS
VL: DIQMTQSPASLSASVGETVTITCRASDNIYSYLTWYHQKQGKSPHLLVYNAKTLPEGVPLRFSGTGSGTQFSLKINSLQPEDFGIYFCLHDYGFPRTFGGGTILEVKR
B2: humanized 26B6 mAb (antibody, human IgG1, kappa, V domains shown)
VH: EVQLVESGGGLVKPGGSLKLSCAASGFTITDYYIYWLRQTPEKKLEWVAAISDGGRYTDYPDSVKGRFTMSSDNAKTNLYLQMGSLQSDDTGMYYCARWASYGYHWYFDVWGAGTTVTVSS
VL: DIQMTQTTSSLSASLGDRVTISCSASQDISNYINWYQQKRDGTVKLLIYDSSSLHSGVPSRFSGSGSGTDYSLTISNLEPEDFATYFCQQYSNLPPTFGGGTNLEIKR
B3: humanized 2C7 mAb (antibody, human IgG1, kappa, V domains shown)
VH: EVQLQQSGPELEKPGASVKISCKASGYSFTGYNMNWVKQSNGKSLEWIGNIDPYFGGTSYNQKFKGKATLTVDKSSSTAYMELKSLTSEDSAVYYCARHYGYFPWFAYWGQGTLVTVSA
VL: DIVLTQSPASLAVSLGQRATISCRASESVDSSGNSFMHWYQQKPGQPPKLLIYRASNLESGIPARFSGSGSRTDFTLTINPVGADDVATYYCQQSNEDPWTFGGGTKLEIKR

Assays:
[1] = target: ULs (UL128, UL130, UL131A of the HCMV Pentamer) on TB40 virus (Human Cytomegalovirus (HCMV), TB40 virus); assay: cell-based or functional assay
[2] = target: HCMV glycoprotein H (gH) on TB40 virus (Human Cytomegalovirus (HCMV), TB40 virus); assay: cell-based or functional assay

| Binder | IC50 (µg/ml), HCMV TB40 neutralization on ARPE-19 epithelial cells [1] | IC50 (µg/ml), HCMV TB40 neutralization on MRC-5 fibroblasts [1] | IC50 (µg/ml), HCMV TB40 neutralization on ARPE-19 epithelial cells [2] | IC50 (µg/ml), HCMV TB40 neutralization on MRC-5 fibroblasts [2] |
| --- | --- | --- | --- | --- |
| B1 | 0.0031 µg/mL | > 10 µg/mL |  |  |
| B2 | 0.00407 µg/mL | > 10 µg/mL |  |  |
| B3 |  |  | 0.0915 µg/mL | 0.53 µg/mL |
